# Measured values reported in patent publication US20180187272A1.
# Biological target: Ste2 GPCR (Saccharomyces cerevisiae) (UniProt D6VTK4)
# Assay: cell-based or functional assay
# Chain of Ste2 GPCR (Saccharomyces cerevisiae) (D6VTK4 whole entry): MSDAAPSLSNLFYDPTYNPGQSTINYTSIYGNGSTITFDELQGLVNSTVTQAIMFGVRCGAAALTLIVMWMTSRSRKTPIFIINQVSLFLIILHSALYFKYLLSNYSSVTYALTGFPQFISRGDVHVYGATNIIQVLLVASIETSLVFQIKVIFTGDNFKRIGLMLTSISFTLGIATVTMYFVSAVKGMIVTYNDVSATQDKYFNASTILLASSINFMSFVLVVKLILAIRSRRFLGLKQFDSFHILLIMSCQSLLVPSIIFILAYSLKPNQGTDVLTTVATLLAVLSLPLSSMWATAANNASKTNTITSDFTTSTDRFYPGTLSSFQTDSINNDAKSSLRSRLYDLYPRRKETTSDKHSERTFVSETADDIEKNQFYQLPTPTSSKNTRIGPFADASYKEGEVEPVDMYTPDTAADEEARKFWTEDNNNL
substance,measurement,value
α-factor (from UniProt P01149 90-102) (peptide),"GFP max (AU), PFig1-GFP(m)",7570 AU
same,"GFP max (AU), PFig1-GFP(s)",2310 AU
same,"GFP max (AU), PFus1-GFP(m)",20500 AU
same,"GFP max (AU), PFus1-GFP(s)",4560 AU
same,"KM (chemical concentration at half maximal signal), GFP reporter PFig1-GFP(m), flow cytometry",0.02 µM
same,"KM (chemical concentration at half maximal signal), GFP reporter PFig1-GFP(s), flow cytometry",0.03 µM
same,"KM (chemical concentration at half maximal signal), GFP reporter PFus1-GFP(m), flow cytometry",0.02 µM
same,"KM (chemical concentration at half maximal signal), GFP reporter PFus1-GFP(s), flow cytometry",0.02 µM
